In patent US20240218071A1 (ANHUI BIOX VISION BIOLOGICAL TECHNOLOGY, published 2024):

Legend:
[1] = biological target: T1, cynomolgus monkey CD40 expressed on the cell surface (cynomolgus monkey, UniProt G7PG38 21-278); test: flow cytometry on CHO-K-cynoCD40 cells, APC anti-human F(ab')2 secondary antibody
T1 construct: also called CHO-K-cynoCD40 cells
Experimental: The CHO-K-huCD40 cells or CHO-K-cynoCD40 cells were seeded into a 96-well plate at 1.0×10⁵ cells/well, and diluted C8 anti-CD40 Fab candidate molecules were added. […] Then, the cells were washed, and the binding of the C8 anti-CD40 Fab candidate molecules to CD40 molecules expressed on the cell surface was detected by flow cytometry (Beckman Coulter).

[2] = biological target: T2, P17-Fc fusion protein (human CD40 extracellular domain fused to human IgG1 Fc) (human, UniProt P25942 21-193, limits assumed); test: ELISA of Fab on P17-Fc
T2 construct: CD40 ECD at the N-terminus of the human IgG1 Fc; expressed in CHO-K cells; also called CD40 ECD-Fc fusion protein; CD40 antigen P17-Fc; not shown: human IgG1 Fc fragment
T2 sequence (P25942 21-193 limits assumed): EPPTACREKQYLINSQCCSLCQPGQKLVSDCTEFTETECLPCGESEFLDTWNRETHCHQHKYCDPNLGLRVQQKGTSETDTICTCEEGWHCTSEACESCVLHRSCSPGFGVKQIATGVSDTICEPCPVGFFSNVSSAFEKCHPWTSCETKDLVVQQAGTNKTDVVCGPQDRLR

T1 sequence (G7PG38 entry or part of it limits assumed): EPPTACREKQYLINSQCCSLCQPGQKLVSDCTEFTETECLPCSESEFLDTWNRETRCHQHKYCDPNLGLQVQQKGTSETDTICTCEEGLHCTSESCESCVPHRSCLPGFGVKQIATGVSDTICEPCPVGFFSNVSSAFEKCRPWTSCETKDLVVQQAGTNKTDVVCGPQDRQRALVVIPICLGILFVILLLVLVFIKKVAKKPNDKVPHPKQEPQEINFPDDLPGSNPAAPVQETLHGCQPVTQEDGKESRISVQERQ

B1: C8 clone anti-CD40 Fab molecule (Fab, V domains shown)
VH: EVQLLESGGGLVRPGGSLRLSCAASGFTFGSYEMNWVRQAPGKGLEWVSYISSSGETTDYADSVKGRFTVSRDNSKNLLYLQMNSLRAEDTAVYYCARDVFFFDSSGDNGAYGMDVWGQGTMVTVSS
VL: DIQLTQSPSSLTASVGDRVTITCRSSQGIRSSLAWYQQKPGKPPKLLIYGASSLEGGVPSRFSGSGSGTDFTLTISSLQPEDFATYYCQQLNSFPSTFGQGTKLEIK
notes: Expressed as a Fab fragment in CHO-K cells; also called C8 Fab; C8 clone Fab
[1]
  binding result: binds
[2]
  EC50: ~0.476 µg/mL
